Laboratory results as given in US20100278752A1 (RHODE ISLAND BOARD OF GOVERNORS FOR HIGHER EDUCATION, published 2010).

B1: Sialostatin L (other)
chain: MTGVFGGYSERANHQANPEFLNLAHYATSTWSAQQPGKTHFDTVAEVVKVETQVVAGTNYRLTLKVAESTCELTSTYNKDTCLPKADAAHRTCTTVVFENLQGDKSVSPFECEAA
B2: Sialostatin L2 (other)
chain: MELALRGGYRERSNQDDPEYLELAHYATSTWSAQQPGKTHFDTVVEVLKVETQTVAGTNYRLTLKVAESTCELTSTYNKDTCQANANAAQRTCTTVIYRNLQGEKSISSFECAAA
notes: Recombinant protein overexpressed in bacteria; also called second salivary cystatin; novel cystatin

Key:
Cathepsin L [1] = molecular target: T1, Cathepsin L (Homo sapiens (Human), UniProt P07711 114-333); assay: cell-based or functional assay
T1 sequence (P07711 114-333 limits assumed, form in doubt): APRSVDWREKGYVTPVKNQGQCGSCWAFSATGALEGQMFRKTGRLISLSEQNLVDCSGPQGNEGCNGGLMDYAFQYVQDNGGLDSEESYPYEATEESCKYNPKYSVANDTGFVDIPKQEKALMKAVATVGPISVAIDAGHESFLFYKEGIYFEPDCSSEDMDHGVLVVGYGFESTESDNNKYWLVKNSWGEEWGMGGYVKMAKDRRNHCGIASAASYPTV

Cathepsin V = assay: cell-based or functional assay
Cathepsin C = assay: cell-based or functional assay
Cathepsin S = assay: cell-based or functional assay
Cathepsin X/Z/P = Cathepsin X/Z/P (Homo sapiens (Human), UniProt Q9UBR2 62-303); assay: cell-based or functional assay
Chain of Cathepsin X/Z/P (Q9UBR2 62-303 limits assumed, form in doubt): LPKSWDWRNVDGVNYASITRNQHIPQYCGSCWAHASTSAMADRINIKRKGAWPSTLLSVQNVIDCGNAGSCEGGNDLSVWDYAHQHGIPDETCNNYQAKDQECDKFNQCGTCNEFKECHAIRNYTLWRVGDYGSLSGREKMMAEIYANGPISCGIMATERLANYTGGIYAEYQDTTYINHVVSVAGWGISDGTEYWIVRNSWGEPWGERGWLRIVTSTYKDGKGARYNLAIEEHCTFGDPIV

Cathepsin L [2] = molecular target: T1, Cathepsin L; assay: enzyme kinetics for tight binding inhibition: Morrison's equation, Ki* plotted against substrate concentration, y intercept of the linear regression

Binder | IC50 (inhibitor concentration at which 50% inhibition of enzymatic activity is achieved); 20 pM enzyme (Cathepsin L [1]) [pM] | IC50 (inhibitor concentration at which 50% inhibition of enzymatic activity is achieved); 1 nM enzyme (Cathepsin V) [nM] | IC50 (inhibitor concentration at which 50% inhibition of enzymatic activity is achieved); 10 nM enzyme (Cathepsin C) [nM] | IC50 (inhibitor concentration at which 50% inhibition of enzymatic activity is achieved); 60 pM enzyme (Cathepsin S) [nM] | IC50 (inhibitor concentration at which 50% inhibition of enzymatic activity is achieved); 16 nM enzyme (Cathepsin X/Z/P) [nM] | Ki (Cathepsin L [2]) [nM]
B1 | 126 | 24.1 | 52.2 | 0.7 | 937 | –
B2 | 70.9 | 28.8 | 740 | 378 | – | 0.0655
